Data published in US7883707B2, “Induction of antigen specific immunnologic tolerance” (priority 2002, dated 2011).
“And” between values parts separate entries of the source, which are not always exact repeats. Equal values may be shown once. “Also recorded” adds a separate entry of the source.

B1: ovalbumin: non-phosphorylated protein antigen with mannose terminated N-linked oligosaccharides (protein, UniProt P01012 2-386, looked up)
Ovalbumin: GSIGAASMEFCFDVFKELKVHHANENIFYCPIAIMSALAMVYLGAKDSTRTQINKVVRFDKLPGFGDSIEAQCGTSVNVHSSLRDILNQITKPNDVYSFSLASRLYAEERYPILPEYLQCVKELYRGGLEPINFQTAADQARELINSWVESQTNGIIRNVLQPSSVDSQTAMVLVNAIVFKGLWEKAFKDEDTQAMPFRVTEQESKPVQMMYQIGLFRVASMASEKMKILELPFASGTMSMLVLLPDEVSGLEQLESIINFEKLTEWTSSNVMEERKIKVYLPRMKMEEKYNLTSVLMAMGITDVFSSSANLSGISSAESLKISQAVHAAHAEINEAGREVVGSAEAGVDAASVSEEFRADHPFLFCIKHIATNAVLFFGRCVSP
B2: iduronidase: recombinant human α-L-iduronidase, lysosomal hydrolase with mannose 6-phosphate marker (protein, UniProt P35475 28-653, looked up)
Alpha-L-iduronidase: APHLVHVDAARALWPLRRFWRSTGFCPPLPHSQADQYVLSWDQQLNLAYVGAVPHRGIKQVRTHWLLELVTTRGSTGRGLSYNFTHLDGYLDLLRENQLLPGFELMGSASGHFTDFEDKQQVFEWKDLVSSLARRYIGRYGLAHVSKWNFETWNEPDHHDFDNVSMTMQGFLNYYDACSEGLRAASPALRLGGPGDSFHTPPRSPLSWGLLRHCHDGTNFFTGEAGVRLDYISLHRKGARSSISILEQEKVVAQQIRQLFPKFADTPIYNDEADPLVGWSLPQPWRADVTYAAMVVKVIAQHQNLLLANTTSAFPYALLSNDNAFLSYHPHPFAQRTLTARFQVNNTRPPHVQLLRKPVLTAMGLLALLDEEQLWAEVSQAGTVLDSNHTVGVLASAHRPQGPADAWRAAVLIYASDDTRAHPNRSVAVTLRLRGVPPGPGLVYVTRYLDNGLCSPDGEWRRLGRPVFPTAEQFRRMRAAEDPVAAAPRPLPAGGRLTLRPALRLPSLLLVHVCARPEKPPGQVTRLRALPLTQGQLVLVWSDEHVGSKCLWTYEIQFSQDGKAYTPVSRKPSTFNLFVFSPDTGAVSGSYRVRALDYWARPGPFSDPVPYLEVPVPRGPPSPGNP
B3: dephospho iduronidase: recombinant iduronidase dephosphorylated by incubation with acid phosphatase bound to beads (protein, UniProt P35475 28-653, looked up)
Alpha-L-iduronidase: B2 Alpha-L-iduronidase
modifications: dephosphorylated

Columns and labels:
ovalbumin = test: Attempted induction of tolerance to ovalbumin; assay type: in vivo; conditions: ovalbumin with mannose terminated N-linked oligosaccharides
Text: The titer in the tolerance dogs stayed low for several months and was studied in RO and SA for 6 months of weekly infusions (FIG. 2).

[1] = test system: antibody titer to iduronidase; test: ELISA antibody titer to iduronidase in canines on weekly iduronidase infusions, with or without tolerance regimens
Description: Normal and MPS I canines were obtained from the MPS I canine colony at Harbor-UCLA. The dogs are a cross between beagles and Plott hounds and average 12-20 kg in weight. The canines were under 2 years of age and at least 4 months of age for these experiments.
Enzyme Infusions. […] For toleragenic infusions, 14,000 U/kg/week α-L-iduronidase in 50 mL infusion in saline with 1 mg/mL canine albumin, and 10 mM NaPO4 was administered intravenously over 2 hours (1st hour 3,000 U/kg/hr; 2nd hour 11,000 U/kg/hr). Animals monitored for an anaphylactic reaction.
Canines were initiated on immunosuppressive drugs at day 0, equivalent to 18 days prior to the first enzyme challenge. If scheduled, the canines received monoclonal antibodies by intravenous infusion (2-5 mg) just prior to ITI. On day 4, the dogs received, if scheduled, an intrathymic injection of iduronidase at 1 mg/kg. Two weeks later, the dogs were begun on a weekly schedule of iduronidase enzyme infusions consisting of a weekly intravenous infusion of 14,000 U/kg (0.056 mg/kg/wk) of human recombinant iduronidase.
All canines received 0.056 mg/kg/week rh iduronidase intravenous challenges. Pre treatment ELISA values represent serum antibody levels prior to first antigen challenge with iduronidase.
Iduronidase was the same high uptake iduronidase as described above. The canines were challenged with 0.58 mg/kg of enzyme administered intravenously on a weekly basis for 3-6 doses.

[2] = test system: IgA and IgE antibodies to iduronidase; test: ELISA for IgG, IgA and IgE antibodies to iduronidase in canine sera; assay type: in vivo; conditions: before vs after 12 weekly infusions with iduronidase
Text: The tolerance regimen in canine prevents the induction of IgG as manifested by a decrease in total IgG response against iduronidase as compared to the IgG response observed in non-tolerant canines. […] Analyses of the immune sera of canines that were either tolerant (dogs […] and SA) or canine controls (dogs RU and UM) that had not received the tolerizing regimen were studied for the presence of IgG, IgA and IgE antibodies to iduronidase.

[3] = dog, in vivo
Description: Canines were administered 14,000 U/kg/week α-L-iduronidase or higher dose as dose was ramped up, in a 50 mL infusion in saline containing 1 mg/mL canine albumin, 10 mM NaPO4, pH 5.8. Administered intravenously over 2 hours (1st hour 3,000 U/kg/hr; 2nd hour 11,000 U/kg/hr, or a higher rate in the 2nd hour depending on the dose). Animals were monitored for anaphylactic reaction.

Hurler fibroblasts = test: Half maximal uptake (Kuptake) of iduronidase into Hurler fibroblasts; assay type: cell-based
Text: It is especially preferred that the receptor has a Kuptake for the ligand of at least about 10^−6 M, usually at least about 10^−7 M more usually at least about 10^−8 M and preferably at least about 10^−9 M where Kuptake represents the concentration of ligand at which half maximal uptake occurs in a cell. Receptors of interest include the transferrin receptor, the melanotransferrin receptor, mannose 6-phosphate receptor, growth hormone receptor, and the like. Cognate ligands include: insulin-like growth factor II (IGF2), transferrin, growth hormone, insulin, and binding fragments thereof, particularly polypeptides having specific and high affinity receptors on diverse cell types. Single chain antibodies and binding agents from randomized phage display systems could be used if they have adequate affinity for the receptor. To determine the Kuptake of a ligand and receptor combination, methods known in the art may be used, for example see Kakkis et al. (1994) Protein Expr Purif 5(3):225-32 for assays used to determine the Kuptake of alpha-L-iduronidase. The disclosed methods are readily adapted to any ligand and receptor combination. Such assays are also useful in verifying the uptake of toleragens comprising exogenous high uptake moieties.
Enzyme Infusions. […] Animals monitored for an anaphylactic reaction. […]

Row | Molecule | induction of tolerance to ovalbumin (ovalbumin) | mean antibody titer after 12 weekly infusions of rhIDU ([1]; ELISA, eight normal and MPS I canines vs eight control canines) | Antibody levels at week 15 ([1]; MPS I canines, iduronidase raised stepwise to 0.500 mg/kg/week at week 15) | titer on reexposure (anamnestic response) ([1]; canine Nitro, after nearly 6 months hiatus, 0.5 mg/kg/wk infusions) | further increase in antibody titer on higher therapeutic doses ([1]; immune responsive canines) | induction in antibody titer on rechallenge ([1]; non-tolerant canine RU, after 2 doses of enzyme following 4.5 month hiatus) | titers by week 14 of enzyme therapy ([1]; two MPS I canines previously treated with 0.5 mg/kg/wk, no tolerance regimen, 0.5 mg/kg) | mean antibody titer on higher therapeutic doses of iduronidase ([1]; up to 6 months, n=6 tolerant, n=2 immune responsive) | increase in IgA or IgE titer to iduronidase [2] | anaphylactic / anaphylactoid reaction during the infusion [3] | Kuptake (enzyme concentration at half maximal uptake) (Hurler fibroblasts) | tolerance induction with this form of the toleragen ([1]; canines, applied with the tolerance regimen (CsA+Aza), listed as dephosphorylated rhIDU)
1 | B1 | did not succeed; also recorded: could not | – | – | – | – | – | – | – | – | – | – | –
2 | B2 | – | 149 OD units/μl serum | > 500 OD Units | ≥ 400 | 2-3 fold | > 20 fold | 1800 and 2000 | 369 OD/μl serum | ~10 fold | serious clinical anaphylactic reaction | about 1 nanomolar | –
3 | B3 | – | – | – | – | – | – | – | – | – | – | too low to be calculated | did not allow induction of the tolerant state
